Common to all, as to assay: SPR; reducing conditions: 2 mM TCEP in the SPR running buffer, immobilised PBP1B versions incubated in it for 30 min before the assay; LpoB injected from 19.5 nM to 10 μM; apparent KD
Holding throughout (conditions): both partners purified

One assay concerns the target T1, PBP1B^Δ158–160 (E. coli, UniProt P02919 46-844, Δ158–160).
T1 construct: PBP1B, E. coli, residues 46-844 with residues 158-160 of Loop 1 removed, made by mutagenesis of pDML924; also called Loop 1 truncation; source: E. coli BL21(DE3), purified (membrane extract, HisTrap, thrombin, HiTrap SP ion exchange)
T1 sequence (looked up): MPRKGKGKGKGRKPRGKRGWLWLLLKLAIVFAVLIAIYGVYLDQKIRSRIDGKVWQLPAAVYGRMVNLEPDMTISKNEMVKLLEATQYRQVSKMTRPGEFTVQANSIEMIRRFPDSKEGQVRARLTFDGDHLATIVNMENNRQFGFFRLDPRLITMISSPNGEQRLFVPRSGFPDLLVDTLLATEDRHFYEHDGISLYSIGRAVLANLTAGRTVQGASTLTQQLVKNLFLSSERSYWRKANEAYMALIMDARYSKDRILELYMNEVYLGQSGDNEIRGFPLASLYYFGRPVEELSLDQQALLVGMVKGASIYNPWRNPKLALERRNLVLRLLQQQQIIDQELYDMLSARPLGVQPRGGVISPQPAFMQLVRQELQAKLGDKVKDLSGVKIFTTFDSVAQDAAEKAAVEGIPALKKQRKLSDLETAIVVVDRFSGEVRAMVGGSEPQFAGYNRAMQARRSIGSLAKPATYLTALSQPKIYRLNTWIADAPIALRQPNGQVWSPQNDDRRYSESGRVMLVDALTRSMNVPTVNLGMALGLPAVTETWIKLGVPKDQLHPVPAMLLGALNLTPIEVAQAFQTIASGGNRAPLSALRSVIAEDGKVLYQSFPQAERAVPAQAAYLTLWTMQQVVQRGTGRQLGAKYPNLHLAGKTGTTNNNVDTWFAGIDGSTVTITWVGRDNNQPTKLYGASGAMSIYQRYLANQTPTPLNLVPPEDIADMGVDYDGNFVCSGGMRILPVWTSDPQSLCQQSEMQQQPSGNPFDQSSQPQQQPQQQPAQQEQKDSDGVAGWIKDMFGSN

Another assay addresses T2, PBP1B I202F (E. coli, UniProt P02919 46-844, I202F).
T2 construct: PBP1B, E. coli, residues 46-844, made by mutagenesis of pDML924; Substitution first found in the suppressor screen of Markovski et al. 2016 (LpoB bypass); source: E. coli BL21(DE3), purified (membrane extract, HisTrap, thrombin, HiTrap SP ion exchange)
T2 sequence (looked up): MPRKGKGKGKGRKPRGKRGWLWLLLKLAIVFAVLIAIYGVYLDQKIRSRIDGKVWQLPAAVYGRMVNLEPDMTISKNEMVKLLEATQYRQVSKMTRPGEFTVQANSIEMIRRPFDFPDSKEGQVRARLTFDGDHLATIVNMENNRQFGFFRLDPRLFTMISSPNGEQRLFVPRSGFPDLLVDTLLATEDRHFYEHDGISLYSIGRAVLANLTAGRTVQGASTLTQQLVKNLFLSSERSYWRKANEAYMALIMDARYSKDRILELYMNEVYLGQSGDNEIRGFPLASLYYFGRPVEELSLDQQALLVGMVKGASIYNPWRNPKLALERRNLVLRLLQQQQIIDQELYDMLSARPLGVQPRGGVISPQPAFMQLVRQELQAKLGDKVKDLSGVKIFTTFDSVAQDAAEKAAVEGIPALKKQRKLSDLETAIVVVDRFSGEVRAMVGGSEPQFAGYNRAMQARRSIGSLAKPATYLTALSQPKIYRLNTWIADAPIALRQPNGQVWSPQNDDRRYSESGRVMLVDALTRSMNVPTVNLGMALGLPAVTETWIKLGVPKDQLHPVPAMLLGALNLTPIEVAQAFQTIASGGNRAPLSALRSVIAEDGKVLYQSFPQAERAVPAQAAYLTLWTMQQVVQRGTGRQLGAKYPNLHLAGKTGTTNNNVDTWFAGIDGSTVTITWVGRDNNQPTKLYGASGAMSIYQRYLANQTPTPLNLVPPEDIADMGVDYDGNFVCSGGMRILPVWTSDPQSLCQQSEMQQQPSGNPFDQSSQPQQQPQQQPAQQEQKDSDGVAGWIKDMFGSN

A further assay addresses T3, PBP1B R157A (E. coli, UniProt P02919 46-844, R157A).
T3 construct: PBP1B, E. coli, residues 46-844, made by mutagenesis of pDML924; source: E. coli BL21(DE3), purified (membrane extract, HisTrap, thrombin, HiTrap SP ion exchange)
T3 sequence (looked up): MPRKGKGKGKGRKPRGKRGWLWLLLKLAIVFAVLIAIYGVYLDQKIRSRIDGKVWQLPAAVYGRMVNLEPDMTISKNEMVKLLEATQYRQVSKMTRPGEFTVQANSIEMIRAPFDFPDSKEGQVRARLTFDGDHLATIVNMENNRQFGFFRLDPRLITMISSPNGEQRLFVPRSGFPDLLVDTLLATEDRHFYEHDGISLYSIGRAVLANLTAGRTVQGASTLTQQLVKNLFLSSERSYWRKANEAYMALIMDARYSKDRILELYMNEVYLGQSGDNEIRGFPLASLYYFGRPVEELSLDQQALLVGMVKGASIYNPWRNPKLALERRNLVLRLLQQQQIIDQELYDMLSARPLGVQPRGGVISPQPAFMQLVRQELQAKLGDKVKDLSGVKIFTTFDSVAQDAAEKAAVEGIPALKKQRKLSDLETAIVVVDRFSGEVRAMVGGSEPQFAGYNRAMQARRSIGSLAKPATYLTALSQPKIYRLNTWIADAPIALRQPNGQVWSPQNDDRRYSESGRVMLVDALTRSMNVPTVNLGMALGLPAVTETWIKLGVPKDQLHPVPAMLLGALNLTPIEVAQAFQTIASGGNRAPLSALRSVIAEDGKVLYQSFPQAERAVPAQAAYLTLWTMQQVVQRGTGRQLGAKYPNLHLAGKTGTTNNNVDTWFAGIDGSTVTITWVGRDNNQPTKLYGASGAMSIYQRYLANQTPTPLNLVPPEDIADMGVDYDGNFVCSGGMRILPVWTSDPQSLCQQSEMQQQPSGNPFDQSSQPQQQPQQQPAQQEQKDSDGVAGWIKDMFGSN

B1: LpoB (natural protein, E. coli)
chain: VGQREPAPVEEVKPAPEQPAEPQQPVPTVPSVPTIPQQPGPIEHEDQTAPPAPHIRHYDWNGAMQPMVSKMLGADGVTAGSVLLVDSVNNRTNGSLNAAEATETLRNALANNGKFTLVSAQQLSMAKQQLGLSPQDSLGTRSKAIGIARNVGAHYVLYSSASGNVNAPTLQMQLMLVQTGEIIWSGKGAVSQQ
notes: LpoB, E. coli; also called lipoprotein LpoB; source: E. coli BL21(DE3), purified (HisTrap, Superdex 200), as in Egan et al. 2014
As to B1, the Kd is 1700 nM with PBP1B^Δ158–160, 17 nM with PBP1B I202F and 357 nM with PBP1B R157A.

Values taken from paper PMC6220978, “Induced conformational changes activate the peptidoglycan synthase PBP1B” (Molecular Microbiology, 2018).
